Reference: patent publication US20100004429A1 (Kyowa Kirin, published 2010)

Assays:
[1] = biological target: T1, human thrombopoietin receptor (human c-Mpl) (human, UniProt P40238 26-635); assay: cell-based or functional assay
T1 sequence (looked up): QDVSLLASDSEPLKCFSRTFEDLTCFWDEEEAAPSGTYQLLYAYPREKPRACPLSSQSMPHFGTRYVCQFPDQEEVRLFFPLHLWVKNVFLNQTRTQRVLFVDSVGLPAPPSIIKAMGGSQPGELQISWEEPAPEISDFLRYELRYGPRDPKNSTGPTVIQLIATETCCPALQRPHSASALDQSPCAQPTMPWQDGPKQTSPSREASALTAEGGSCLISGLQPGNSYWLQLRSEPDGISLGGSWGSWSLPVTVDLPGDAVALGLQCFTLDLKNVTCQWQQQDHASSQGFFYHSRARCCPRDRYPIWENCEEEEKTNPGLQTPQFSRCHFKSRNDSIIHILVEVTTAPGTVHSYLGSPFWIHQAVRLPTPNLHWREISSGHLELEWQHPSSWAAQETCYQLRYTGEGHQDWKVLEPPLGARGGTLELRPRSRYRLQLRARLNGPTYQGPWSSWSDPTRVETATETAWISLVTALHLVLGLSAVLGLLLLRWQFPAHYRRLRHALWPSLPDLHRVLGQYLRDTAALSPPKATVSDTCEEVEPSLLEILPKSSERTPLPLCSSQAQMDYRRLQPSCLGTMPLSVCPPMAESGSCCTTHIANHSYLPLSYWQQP

[2] = biological target: T1, human thrombopoietin receptor (human …); assay: flow cytometry on FM3A-hMpl cells
Protocol: The binding activity of the anti-human c-Mpl antibodies was assayed by flow cytometry using the hybridoma culture supernatants or purified antibodies in the following manner. The FM3A-hMpl cells or human Mpl expressing FDCP2 cells (FDCP-hMpl) (FEBS, Lett., Oct. 21, 1996, 395 (2-3): 228-34) were used.
Cells (4×10⁵ cells) were suspended in 50 μl of FACS staining medium (2% FBS, 0.1% NaN₃, 1 mM EDTA in PBS) per reaction, 50 μl of the hybridoma culture supernatant or purified human antibody solution (final concentration: 0.1-1 μg/ml) was added, and the reaction was carried out on ice for 30 minutes. After the washing with FACS staining medium, a secondary antibody, the R-phycoerythrin (RPE) labeled goat anti-human Igγ F(ab′) antibody (Cat#2043-09, Southern Biotechnology), was added, and the reaction was carried out again on ice under the light-shielded conditions for 30 minutes, followed by washing again. The cells were suspended in a propidium iodide (PI)-containing FACS staining medium in order to analying binding activities of the antibodies. The analysis was made using the FACS Calibur (Becton Dickinson).
The concentrations of antibodies were prepared at 1, 0.1, and 0.01 μg/ml, and flow cytometry was carried out using FM3A-hMpl cells. The experiment was carried out in accordance with the method described in Example 4. […]

[3] = biological target: T1, human thrombopoietin receptor (human …); assay: cell-based or functional assay; remark: listed apart in the source

B1: anti-human c-Mpl agonist antibody 4-49 (IgG1) (antibody, V domains shown)
VH: EEQLVESGGGLVQPGRSLRLSCTASGFTFDDYAMYWVRQVPGKGLEWVSGISWNSGSIGYADSVKGRFTVSRDNAKNSLYLQMNSLRAEDTALYYCAKALWFGEFPHYYGMDVWGQGTTVTVSS
VL: AIQLTQSPSSLSASVGDRVTITCRASQGISSTLAWYQQKPGKAPKLLIYDASSLESGVPSRFSGSGSGTDFTLTISSLQPEDFATYYCQQFNSYPYTFGQGTKLEIKR
- UT7/TPO (Max) [1]: > 80%

B2: anti-human c-Mpl agonist antibody 6-4-50 (IgG1) (antibody, V domains shown)
VH: EVQLVESGGGLVQPGRSLRLSCATSGFTFDNYAMYWVRQAPGKGLEWVSGISWNSGDIGYADSVKGRFTISRDNAKNSLYLQMNSLRAEDTALYYCARDAGFGEFHYGLDVWGQGTTVTVSS
VL: AIQLTQSPSSLSASVGDRVTITCRASQGISSALAWYQQKPGKVPKLLIYDASSLESGVPSRFSGSGSGTDFTLTISSLQPEDFATYYCQQFNSYPWTFGQGTKVEIKR
- UT7/TPO (Max) [1]: > 80%

B3: anti-human c-Mpl agonist antibody 7-10 (IgG1) (antibody, V domains shown)
VH: EVQLVESGGGLVQPGRSLRLSCAASGFTFDDYAMHWVRQAPGKGLEWVSGISWNSGSIGYADSVKGRFTISRDNAKNSLYLQMNSLRAEDTALYYCAKNLWFGEFRYWYFDLWGRGTLVTVSS
VL: AIQLTQSPSSLSASVGDRVTITCRASQGISSALAWYQQKPGKAPKLLIYDASSLESGVPSRFSGSGSGTDFTLTISSLQPEDFATYYCQQFNSYPLTFGGGTKVEIK
- UT7/TPO (Max) [1]: > 90%

B4: 7-10G4344uhm light chain mutant 7-10VL_A43V (antibody, V domains shown)
VH: EVQLVESGGGLVQPGRSLRLSCAASGFTFDDYAMHWVRQAPGKGLEWVSGISWNSGSIGYADSVKGRFTISRDNAKNSLYLQMNSLRAEDTALYYCAKNLWFGEFRYWYFDLWGRGTLVTVSS
VL: AIQLTQSPSSLSASVGDRVTITCRASQGISSALAWYQQKPGKVPKLLIYDASSLESGVPSRFSGSGSGTDFTLTISSLQPEDFATYYCQQFNSYPLTFGGGTKVEIK
notes: Mutant light chain combined with the heavy chain of 7-10G4344uhm; human kappa constant region; also called 6-4-50VL substitution product 2
- binding result [2]: binds

B5: 7-10G4344uhm light chain mutant 7-10VL_Y94F (antibody, V domains shown)
VH: EVQLVESGGGLVQPGRSLRLSCAASGFTFDDYAMHWVRQAPGKGLEWVSGISWNSGSIGYADSVKGRFTISRDNAKNSLYLQMNSLRAEDTALYYCAKNLWFGEFRYWYFDLWGRGTLVTVSS
VL: AIQLTQSPSSLSASVGDRVTITCRASQGISSALAWYQQKPGKAPKLLIYDASSLESGVPSRFSGSGSGTDFTLTISSLQPEDFATYYCQQFNSFPLTFGGGTKVEIK
notes: Human kappa constant region; also called CDR substitution product
- agonistic activity relative to the original 7-10G4344uhm [3]: ~0.1 fold of the original level
- binding activity relative to the original 7-10G4344uhm [2]: ~0.1 fold of the original level

B6: anti-human c-Mpl agonist antibody 6-5-2 (IgG1) (antibody, V domains shown)
VH: EVQLVECGGGLVQPGRSLRLSCAASGFTFDDYAMHWVRQAPGKGLEWVSGISWNSGSIGYADSVKGRFTISRDNAKNSLYLQMNSLRAEDTALYYCAKPIWFGEWGNYYGMDVWGQGTTVTVSS
VL: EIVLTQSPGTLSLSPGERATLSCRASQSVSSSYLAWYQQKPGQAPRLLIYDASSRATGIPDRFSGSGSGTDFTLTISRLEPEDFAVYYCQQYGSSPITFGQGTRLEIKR
- UT7/TPO (Max) [1]: > 50%
